According to paper PMC9536601 (2022):

Experiments:
Experiment in all cases: SPR
[1] = target: T1, Ad6 hexon, on wild-type human adenovirus type 6 virions (human adenovirus type 6)
T1 chain: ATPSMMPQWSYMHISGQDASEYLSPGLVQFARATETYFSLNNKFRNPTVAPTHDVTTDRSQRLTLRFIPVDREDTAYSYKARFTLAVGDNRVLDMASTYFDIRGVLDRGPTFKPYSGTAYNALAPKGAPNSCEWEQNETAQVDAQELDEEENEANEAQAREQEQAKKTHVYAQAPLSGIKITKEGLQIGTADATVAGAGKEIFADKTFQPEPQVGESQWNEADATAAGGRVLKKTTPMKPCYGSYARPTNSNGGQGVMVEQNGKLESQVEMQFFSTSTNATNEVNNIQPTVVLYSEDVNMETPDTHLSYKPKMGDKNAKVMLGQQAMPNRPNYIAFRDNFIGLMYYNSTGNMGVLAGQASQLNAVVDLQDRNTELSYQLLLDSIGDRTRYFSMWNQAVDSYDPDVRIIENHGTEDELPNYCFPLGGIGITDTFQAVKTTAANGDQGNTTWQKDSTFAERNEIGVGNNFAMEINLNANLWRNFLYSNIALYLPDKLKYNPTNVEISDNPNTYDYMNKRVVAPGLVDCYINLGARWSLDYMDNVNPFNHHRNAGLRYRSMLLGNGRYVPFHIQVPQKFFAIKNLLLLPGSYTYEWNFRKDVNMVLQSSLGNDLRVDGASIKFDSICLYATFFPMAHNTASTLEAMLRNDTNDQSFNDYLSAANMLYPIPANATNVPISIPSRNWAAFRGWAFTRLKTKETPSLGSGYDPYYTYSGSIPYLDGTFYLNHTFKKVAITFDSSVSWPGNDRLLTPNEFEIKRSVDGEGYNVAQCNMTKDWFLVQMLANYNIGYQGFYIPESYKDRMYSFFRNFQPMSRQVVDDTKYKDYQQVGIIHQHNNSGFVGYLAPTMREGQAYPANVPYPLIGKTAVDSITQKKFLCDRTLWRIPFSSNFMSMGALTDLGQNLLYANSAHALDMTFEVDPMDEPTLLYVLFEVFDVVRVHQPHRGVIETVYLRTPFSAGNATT

[2] = target: T2, Ad2 hexon, on wild-type human adenovirus type 2 virions (human adenovirus type 2, UniProt P03277 1-968)
T2 chain: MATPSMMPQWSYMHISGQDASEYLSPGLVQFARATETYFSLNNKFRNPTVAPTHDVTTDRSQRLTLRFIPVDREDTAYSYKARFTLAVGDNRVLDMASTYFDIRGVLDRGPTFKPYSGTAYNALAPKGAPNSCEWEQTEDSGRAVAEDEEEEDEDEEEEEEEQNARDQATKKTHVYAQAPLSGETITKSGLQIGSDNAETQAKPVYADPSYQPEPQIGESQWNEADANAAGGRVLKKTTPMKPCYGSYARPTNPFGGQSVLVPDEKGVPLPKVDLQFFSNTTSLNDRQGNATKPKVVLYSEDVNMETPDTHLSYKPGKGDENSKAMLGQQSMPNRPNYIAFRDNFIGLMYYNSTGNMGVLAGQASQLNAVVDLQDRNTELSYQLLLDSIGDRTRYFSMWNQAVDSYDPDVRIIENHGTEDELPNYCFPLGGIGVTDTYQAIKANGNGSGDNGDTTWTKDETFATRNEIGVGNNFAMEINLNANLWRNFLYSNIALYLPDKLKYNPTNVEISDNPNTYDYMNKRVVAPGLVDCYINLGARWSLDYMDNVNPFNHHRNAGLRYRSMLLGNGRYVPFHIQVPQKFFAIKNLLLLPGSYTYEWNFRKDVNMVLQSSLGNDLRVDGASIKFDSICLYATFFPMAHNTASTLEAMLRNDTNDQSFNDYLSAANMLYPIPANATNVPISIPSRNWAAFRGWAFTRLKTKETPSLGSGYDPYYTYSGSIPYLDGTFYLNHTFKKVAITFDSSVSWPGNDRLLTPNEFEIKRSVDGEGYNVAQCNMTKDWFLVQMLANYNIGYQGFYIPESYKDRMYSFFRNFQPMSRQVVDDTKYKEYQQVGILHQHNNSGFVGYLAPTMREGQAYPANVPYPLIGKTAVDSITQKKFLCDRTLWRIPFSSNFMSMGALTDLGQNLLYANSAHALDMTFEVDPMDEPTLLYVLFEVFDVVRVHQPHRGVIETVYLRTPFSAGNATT

[3] = target: T3, Ad1 hexon, on wild-type human adenovirus type 1 virions (human adenovirus type 1)
T3 chain: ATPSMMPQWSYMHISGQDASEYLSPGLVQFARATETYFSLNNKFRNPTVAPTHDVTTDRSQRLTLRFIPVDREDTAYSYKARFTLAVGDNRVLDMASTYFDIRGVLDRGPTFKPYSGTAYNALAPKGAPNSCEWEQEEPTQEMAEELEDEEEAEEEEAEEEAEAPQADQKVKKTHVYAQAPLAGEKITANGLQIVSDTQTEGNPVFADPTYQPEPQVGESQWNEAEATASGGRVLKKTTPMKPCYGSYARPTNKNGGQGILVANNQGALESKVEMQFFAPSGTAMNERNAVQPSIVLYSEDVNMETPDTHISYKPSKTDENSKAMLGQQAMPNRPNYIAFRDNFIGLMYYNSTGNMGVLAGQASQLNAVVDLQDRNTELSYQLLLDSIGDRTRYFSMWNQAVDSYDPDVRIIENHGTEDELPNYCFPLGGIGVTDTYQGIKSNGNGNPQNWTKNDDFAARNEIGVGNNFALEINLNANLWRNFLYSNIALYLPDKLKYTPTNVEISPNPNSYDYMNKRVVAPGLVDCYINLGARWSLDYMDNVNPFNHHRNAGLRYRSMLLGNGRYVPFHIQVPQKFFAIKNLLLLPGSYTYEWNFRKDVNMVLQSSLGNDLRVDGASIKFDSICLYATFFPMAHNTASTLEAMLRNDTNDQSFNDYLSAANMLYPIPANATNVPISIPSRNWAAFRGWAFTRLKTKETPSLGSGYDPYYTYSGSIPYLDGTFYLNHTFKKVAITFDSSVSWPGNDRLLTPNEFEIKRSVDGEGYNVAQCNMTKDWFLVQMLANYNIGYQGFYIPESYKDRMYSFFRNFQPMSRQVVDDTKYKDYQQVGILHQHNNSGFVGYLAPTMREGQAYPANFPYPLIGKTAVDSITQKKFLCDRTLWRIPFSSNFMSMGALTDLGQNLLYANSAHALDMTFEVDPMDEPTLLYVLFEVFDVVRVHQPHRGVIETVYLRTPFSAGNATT

B1: mouse coagulation factor X (natural protein)
chain 1: ANSFFEEFKKGNLERECMEEICSYEEVREIFEDDEKTKEYWTKYKDGDQCESSPCQNQGACRDGIGGYTCTCSEGFEGKNCELFVRKLCRLDNGDCDQFCREEQNSVVCSCASGYFLGNDGKSCISTAPFPCGKITTGRR
chain 2: VALNTSDSELDLEDALLDEDFLSPTENPIELLNLNETQPERSSDDLVRIVGGRECKDGECPWQALLINEDNEGFCGGTILNEFYILTAAHCLHQARRFKVRVGDRNTEKEEGNEMVHEVDVVIKHNKFQRDTYDYDIAVLRLKTPITFRMNVAPACLPQKDWAESTLMTQKTGIVSGFGRTHEKGRQSNILKMLEVPYVDRNTCKLSTSFSITQNMFCAGYEAKLEDACQGDSGGPHVTRFKNTYYVTGIVSWGEGCARKGKYGIYTKVTTFLKWIDRSMKARVGPTAETPRTAGPPN
modifications: gamma-carboxylated glutamate residues in the Gla domain
How did the Kd [1] turn out when B1 was run?
Its Kd is 0.42 nM.

What about the Kd [2] of the same binder?
Its Kd is 0.76 nM.

And the Kd [3]?
Its Kd is 0.31 nM.
